3 molecules from patent publication US12649778 can be followed below.

Numbering of substitutions follows the chain as printed. In names and notes the source's numbering stands. Several values for one entry are separate records, joined by “and”; a condition that tells them apart may be missing. Equal entries are not always repeated. Where two headings read alike, the source gives them in different places.

Test [1] deals with Peptide 1593 (…) (Mycobacterium tuberculosis). Description: SPR (Biacore), IgG amine-coupled, peptide as analyte. Background: In SPR one partner is held on a chip, and binding of the other changes the refractive index at the surface.
Test [2] has the same target.
For test [3] the target is unchanged. Description: ELISA, Fab supernatant on coated peptide. A general note: ELISA stands for enzyme-linked immunosorbent assay.
Test [4] shares this target. The source holds these as a separate data set.

B1: 65D3 mutant IgG variant 1 (S55W&G64K-VH + S57T-VL) (antibody)
heavy: QSLEESGGRLVTPGGSLTLTCTVSGFSLSTHDISWVRQAPGKGLEWIGVIARRGWTYYASWAKKRFTISKTSTTVDLKITSPTIEDTATYFCAREEFDFWGQGTLVTVSSGQPKAPSVFPLAPCCGDTPSSTVTLGCLVKGYLPEPVTVTWNSGTLTNGVRTFPSVRQSSGLYSLSSVVSVTSSSQPVTCNVAHPATNTKVDKTVAPSTCSKPTCPPPELLGGPSVFIFPPKPKDTLMISRTPEVTCVVVDVSQDDPEVQFTWYINNEQVRTARPPLREQQFNSTIRVVSTLPIAHQDWLRGKEFKCKVHNKALPAPIEKTISKARGQPLEPKVYTMGPPREELSSRSVSLTCMINGFYPSDISVEWEKNGKAEDNYKTTPAVLDSDGSYFLYSKLSVPTSEWQRGDVFTCSVMHEALHNHYTQKSISRSPGK
light: AVLTQTASPVSAAVGGTVTISCQSSQSVYNNKELSWFQQKPGQPPKLLISYASTLATGVPSRFKGSGSGTQFTLTISDLECDDAATYYCLGGYASTIDMWAFGGGTEVVVKGDPVAPTVLIFPPAADQVATGTVTIVCVANKYFPDVTVTWEVDGTTQTTGIENSKTPQNSADCTYNLSSTLTLTSTQYNSHKEYTCKVTQGTTSVVQSFNRGDC
One may read the Kd as the concentration at which binding is half-saturated. The low end stands for a tighter complex, the high end for a looser complex. The term koff denotes the first-order rate constant of dissociation. The low end stands for slow dissociation, the high end for fast dissociation. One may read the kon as the second-order rate constant of association. A lower kon goes with slow association. Regarding B1, in test [1], the Kd stood at 2.6 nM, the koff stood at 0.00027 s⁻¹ and the kon turned out to be 104000 M⁻¹ s⁻¹. Moreover, the Kd in test [2] was 2.7 nM.

B2: chimeric Fab antibody of 65D3 (wild type) (Fab, V domains shown)
VH: QSLEESGGRLVTPGGSLTLTCTVSGFSLSTHDISWVRQAPGKGLEWIGVIARRGSTYYASWAKGRFTISKTSTTVDLKITSPTIEDTATYFCAREEFDFWGQGTLVTVSS
VL: AVLTQTASPVSAAVGGTVTISCQSSQSVYNNKELSWFQQKPGQPPKLLISYASTLASGVPSRFKGSGSGTQFTLTISDLECDDAATYYCLGGYASTIDMWAFGGGTEVVVK
As to B2, in test [3], the OD450 at 0.00390625 ug/ml coated antigen was 0.133 OD450 and 0.147 OD450; the OD450 at 0.0078125 ug/ml coated antigen was 0.319 OD450 and 0.341 OD450; the OD450 at 0.00953125 ug/ml coated antigen (so in the source) stood at 0.084 OD450; the OD450 at 0.015625 ug/ml coated antigen is 0.73 OD450 and 0.789 OD450. Besides, in test [3], the OD450 at 0.03125 ug/ml coated antigen was 1.21 OD450 and 1.37 OD450; the OD450 at 0.0625 ug/ml coated antigen was 1.71 OD450 and 1.8 OD450; the OD450 at 0.125 ug/ml coated antigen is 1.94 OD450 and 2.04 OD450; the OD450 at 0.25 ug/ml coated antigen is 2.18 OD450 and 2.23 OD450. Besides, in test [3], the OD450 at 0.5 ug/ml coated antigen is 2.27 OD450 and 2.25 OD450; the OD450 at 1 ug/ml coated antigen is 2.3 OD450 and 2.31 OD450. Also, in test [4], the OD450 nm (single well) is 0.879 and 0.794.

B3: 65D3 mutant IgG variant 3 (S55W-VH + VL) (antibody)
heavy: B1 heavy with K64G
VL: B2 VL
On to B3, for which, in test [1], the Kd was determined as 2.03 nM, the koff is 0.00026 s⁻¹ and the kon was 128000 M⁻¹ s⁻¹.
